The target of this assay is T1, sstr3 (UniProt P32745 1-418, limits assumed).
T1 construct: whole, on cells; Membranes of transfected CHO-K1 cells; The species is printed only for sstr2 (human); also called somatostatin receptor subtype 3
The assay can be described thus: competitive filtration binding assay, displacement of [^125I]-Tyr-somatostatin-14 (0.2 nM) from CHO-K1 membranes. The method, then: Membranes from Chinese hamster ovary K1 cells transfected with sstr1, sstr2, sstr3, sstr5, and [¹²⁵I]-Tyr-somatostatin-14 were obtained from PerkinElmer. A standard filtration binding assay was performed in 96-well plates (MultiScreen; Millipore) to determine the binding affinities (inhibition constant, or Kᵢ) of AMBF₃-TATE against different receptor subtypes. Briefly, membranes ([…]) were incubated with the ¹²⁵I-labelled standard at a concentration of 0.05 nM for sstr2 or 0.2 nM for other subtypes. Increasing concentrations of AMBF₃-TATE were added to the wells in buffer (25 mM N-2-hydroxyethylpiperazine-N-2-ethanesulfonic acid, pH 7.4; 10 mM MgCl₂; 1 mM CaCl₂; and 0.5% bovine serum albumin). After incubation (37° C., 1 h), the wells were aspirated and washed 8 times with 50 mM ice-cold buffer (Tris-HCl, pH 7.4) over grade GF/B filters. The filters were removed and counted by a γ counter (Cobra II; Packard). Data were fitted to a 1-site competition model (GraphPad Prism 6.1 software) to calculate Kᵢ.

Bridge positions count the residues as written; N and C are the ends. Square brackets hold non-standard residues; d marks the D form. AMBF3 = N,N-dimethylammoniomethyl-trifluoroborate

By Ki is commonly meant a measure of affinity in units of concentration, obtained from inhibition or displacement.

T1 sequence (P32745 whole entry): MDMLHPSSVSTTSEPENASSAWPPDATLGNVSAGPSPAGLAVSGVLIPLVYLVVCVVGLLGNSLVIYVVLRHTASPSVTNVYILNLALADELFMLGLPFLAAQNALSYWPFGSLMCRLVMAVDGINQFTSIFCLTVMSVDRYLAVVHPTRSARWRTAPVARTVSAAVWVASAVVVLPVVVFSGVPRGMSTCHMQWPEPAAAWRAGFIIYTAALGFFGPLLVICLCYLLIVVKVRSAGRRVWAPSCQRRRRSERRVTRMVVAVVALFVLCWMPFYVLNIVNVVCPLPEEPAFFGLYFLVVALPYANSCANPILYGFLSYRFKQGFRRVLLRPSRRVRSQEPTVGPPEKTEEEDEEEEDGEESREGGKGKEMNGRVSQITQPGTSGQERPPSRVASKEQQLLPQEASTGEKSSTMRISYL

B1: AMBF3-TATE (peptide)
peptide: {AMBF3-triazolylacetyl}-[dF]CY[dW]KTCT-OH
modifications: disulfide 2-7
notes: Free C-terminal acid (octreotate); also called ^19F-AMBF3-TATE; ^18F-AMBF3-TATE
B1 displayed a Ki of 28.4 nM.

(Values after US20160333068A1 (BRITISH COLUMBIA CANCER AGENCY BRANCH, published 2016).)
